Reference: patent publication US6084068
Read-outs that look alike come from different tables or passages of the source.

Key:
[1] = molecular target: RNA Polymerase II (rat)
[2] = molecular target: RNA Polymerase II (rat); remark: listed apart in the source

Substance: Elongin A deletion mutant 1-680
- runoff transcription from the AdML promoter by RNA Polymerase II [1]: 50%

Substance: Elongin A deletion mutant 1-730
- runoff transcription from the AdML promoter by RNA Polymerase II [2]: > 50%
